Results: article PMC4260917, “Defective FANCI Binding by a Fanconi Anemia-Related FANCD2 Mutant” (PLoS ONE, 2014)

Molecular target: T1, chicken FANCD2, wild type, purified recombinant (chicken, UniProt Q68Y81 1-1439)
T1 construct: FANCD2, chicken (Gallus gallus); also called cFANCD2; WT cFANCD2; source: E. coli BL21(DE3) codon(+)RIL, purified
Assay: SEC; Superdex 200 10/300 GL; equimolar mixture of cFANCD2 and cFANCI; 20 mM Tris-HCl (pH 8.0), 10% glycerol, 200 mM NaCl, 5 mM 2-mercaptoethanol; fractions on 7% SDS-PAGE, silver staining
Details: both partners purified

T1 sequence (Q68Y81 whole entry): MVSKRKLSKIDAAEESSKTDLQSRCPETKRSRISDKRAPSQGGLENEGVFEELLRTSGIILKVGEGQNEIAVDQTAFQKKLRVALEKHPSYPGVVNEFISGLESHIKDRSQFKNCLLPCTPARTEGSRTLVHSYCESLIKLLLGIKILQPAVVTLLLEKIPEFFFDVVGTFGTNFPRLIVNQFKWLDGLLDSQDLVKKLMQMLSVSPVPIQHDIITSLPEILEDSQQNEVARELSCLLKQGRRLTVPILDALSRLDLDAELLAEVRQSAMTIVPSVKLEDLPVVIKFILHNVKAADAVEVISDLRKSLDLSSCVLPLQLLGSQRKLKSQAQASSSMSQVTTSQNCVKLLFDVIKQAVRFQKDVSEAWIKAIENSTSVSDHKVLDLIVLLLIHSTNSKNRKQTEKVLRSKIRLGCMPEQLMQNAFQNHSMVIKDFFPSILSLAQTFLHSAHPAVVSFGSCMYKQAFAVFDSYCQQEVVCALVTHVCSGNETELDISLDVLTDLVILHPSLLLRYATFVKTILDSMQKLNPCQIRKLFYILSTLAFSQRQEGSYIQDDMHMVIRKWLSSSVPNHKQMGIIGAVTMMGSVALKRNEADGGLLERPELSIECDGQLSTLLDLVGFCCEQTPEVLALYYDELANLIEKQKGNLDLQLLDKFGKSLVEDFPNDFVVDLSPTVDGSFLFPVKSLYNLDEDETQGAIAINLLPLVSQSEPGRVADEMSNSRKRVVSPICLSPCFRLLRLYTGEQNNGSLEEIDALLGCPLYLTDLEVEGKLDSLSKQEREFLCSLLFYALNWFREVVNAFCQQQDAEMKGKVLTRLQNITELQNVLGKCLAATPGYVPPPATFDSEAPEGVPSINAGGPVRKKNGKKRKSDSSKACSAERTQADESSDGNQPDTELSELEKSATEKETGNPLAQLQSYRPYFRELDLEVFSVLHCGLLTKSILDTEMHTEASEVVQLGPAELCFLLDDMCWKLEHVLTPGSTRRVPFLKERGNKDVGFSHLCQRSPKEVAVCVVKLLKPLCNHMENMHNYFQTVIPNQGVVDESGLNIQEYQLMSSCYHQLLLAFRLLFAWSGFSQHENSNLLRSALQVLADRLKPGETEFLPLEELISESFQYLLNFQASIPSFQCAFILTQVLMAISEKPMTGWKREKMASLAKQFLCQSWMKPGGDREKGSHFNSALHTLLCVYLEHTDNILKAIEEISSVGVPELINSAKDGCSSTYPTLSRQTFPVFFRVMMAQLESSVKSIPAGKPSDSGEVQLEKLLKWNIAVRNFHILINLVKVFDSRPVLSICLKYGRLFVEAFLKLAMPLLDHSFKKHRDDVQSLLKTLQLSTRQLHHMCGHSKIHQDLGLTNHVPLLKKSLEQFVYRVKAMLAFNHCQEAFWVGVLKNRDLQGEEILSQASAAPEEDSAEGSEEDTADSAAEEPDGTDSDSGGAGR

B1: chicken FANCI, wild type, purified recombinant (natural protein, UniProt B0I564 1-1338, looked up)
chain: MAQRILQLAAEGSPERLQEALQGLTEGELGDMVTRQALRGRETAALLKGIFKGSPCSQQSGVLRRLQVYKHCVSLVESGDLHVGKVSEIIGLLMLEARQLPGHALAELATLFVEVIKRGSLSNGKSLELFSTVLTALSNSKESLAYGKGELNGEEFKKQLINTLCSSKWDPQCVIHLANMFRDIPLSGEELQFVVEKVLRMFSKLDLQEIPPLVYQLLLLSAKGSKKTVLEGIISFFNQLDKRQKEEQRVPQSADLEVATVPLDQLRHVEGTVILHIVSAINLDQDIGEELIKHLKTEQQKDPGKALCPFSVSLLLSTAVKHRLQEQIFDFLKTSITRSCKDLQILQASKFLQDLCPQQYDVTAVILEVVKNSAFGWDHVTQGLVDLGFSLMESYEPKKSFGGKAAETNLGLSKMPAQQACKLGASILLETFKVHEPIRSDILEQVLNRVLTKAASPVSHFIDLLSNIVVSAPLVLQNSSSRVTETFDNLSFLPIDTVQGLLRAVQPLLKVSMSVRDSLILVLQKAIFSRQLDARKAAVAGFLLLLRNFKILGSLTSSQCSQAIGATQVQADVHACYNSAANEAFCLEILGSLRRCLSQQADVRLMLYEGFYDVLRRNSQLASSIMETLLSQIKQYYLPQQDLLPPLKLEGCIMAQGDQIFLQEPLAHLLCCIQHCLAWYKSTVHLCKGAEDEEEEEDVGFEQNFEEMLESVTRRMIKSELEDFELDKSADFSPSSGVGVKNNIYAIQVMGICEVLIEYNFKIGNFSKNKFEDVLGLFTCYNKLSEILKEKAGKNKSTLGNRIARSFLSMGFVSTLLTALFRDNAQSHEESLAVLRSSTEFMRYAVSVALQKVQQLEEMGQTDGPDGQNPEKMFQNLCKITRVLLWRYTSIPTAVEESGKKKGKSISLLCLEGLLRIFNTMQQLYAARIPQFLQALDITDGDAEEADINVTEKAAFQIRQFQRSLVNQLSSAEDDFNSKETQLLITILSTLSKLLDPGSQQFLQFLTWTVKICKENALEDLSCCKGLLTLLFSLHVLYKSPVSLLRELAQDIHACLGDIDQDVEIESRSHFAIVNVKTAAPTVCLLVLGQADKVLEEVDWLIKRLTILGSDTSEDSTQASNQTQALEKGVILQLGTLLTVFHELVQTALPAGSCVDSLLRSLSKTYAILTSLIKHYIQACRSTSNTVPGRLEKLVKLSGSHLTPQCYSFITYVQNIHSESLSFAEEKKKKKKEDETAVVSTVMAKVLRDTKPIPNLIFAIEQYEKFLIHLSKKSKVNLMQYMKLSTSRDFRINASMLDSVLQEQNTEDAENEPDNNQSGTAEQPDENQEPQKKRRRKK
notes: FANCI, chicken (Gallus gallus); also called cFANCI; WT cFANCI; source: E. coli BL21(DE3) codon(+)RIL, purified
B1: binds.
